Measurements from paper PMC5738273 (Journal of molecular biology, 2017).
Numbering of substitutions follows the chain as printed. Numbers in names are those of the source.

B1: wild-type HdeA (natural protein, Escherichia coli, UniProt P0AES9 22-110, looked up)
chain: ADAQKAADNKKPVNSWTCEDFLAVDESFQPTAVGFAEALNNKDKPEDAVLDVQGIATVTPAIVQACTQDKQANFKDKVKGEWDKIKKDM
B2: HdeA E37Q (natural protein, Escherichia coli, UniProt P0AES9 22-110, looked up)
chain: B1 chain with E37Q

How the values were obtained:
MST [1] = molecular target: the molecule itself; assay: MST
MST [2] = molecular target: the molecule itself; assay: MST; remark: listed apart in the source
ITC = molecular target: the molecule itself; assay: ITC
MST [3] = molecular target: the molecule itself; assay: MST; remark: listed apart in the source
MST [4] = molecular target: the molecule itself; assay: MST; remark: listed apart in the source

Protein	Kd (MST [1]) [nM]	Kd (MST [2]) [nM]	Kd (ITC) [nM]	Kd (MST [3]) [nM]	Kd (MST [4]) [nM]
B1	750 ± 310	1200 ± 200	64000 ± 8000	640 ± 170	
B2				550 ± 100	490 ± 100
